According to article PMC2646873 (Biochemistry, 2008):

Target: the molecule itself
Experiment: crystal structure

B1: CysM (Rv1336) (enzyme)
chain: MTRYDSLLQALGNTPLVGLQRLSPRWDDGRDGPHVRLWAKLEDRNPTGSIKDRPAVRMIEQAEADGLLRPGATILEPTSGNTGISLAMAARLKGYRLICVMPENTSVERRQLLELYGAQIIFSAAEGGSNTAVATAKELAATNPSWVMLYQYGNPANTDSHYCGTGPELLADLPEITHFVAGLGTTGTLMGTGRFLREHVANVKIVAAEPRYGEGVYALRNMDEGFVPELYDPEILTARYSVGAVDAVRRTRELVHTEGIFAGISTGAVLHAALGVGAGALAAGERADIALVVADAGWKYLSTGAYAGSLDDAETALEGQLWA
How did the “stoichiometry N” value turn out when B1 was run?
Its value is 2.
